[ ]: non-standard residue; d: D form.
Molecular target: purified E. coli 30S ribosomal subunit (E. coli (endogenous in MRE600))
Assay: fluorescence polarisation; cf-labeled peptide (10 µL of 40 nmol/L) added to a 2-fold dilution series (22 steps, 10 µL) of pure 70S ribosome, 50S or 30S subunit; ribosome preparation buffer (20 mmol/L HEPES-KOH, 6 mmol/L MgCl2, 30 mmol/L NH4Cl, pH 7.6); 28 ± 1 °C, 90 min; apparent Kd (average over at least two or three sites)

- fold weaker binding than to the 50S subunit: 23 fold
Binder: {5(6)‑carboxyfluorescein}-VDKPPYLPRPRPPR[dR]IYN[dR]-NH2 [cf-Onc112 (5(6)-carboxyfluorescein-labeled Onc112, …rIYNr-NH2)]
